The source of these data is patent US20060115837A1 (WASHINGTON UNIVERSITY, published 2006).

The target in assay [1] is West Nile Virus envelope protein on WNV virions (West Nile Virus) (UniProt Q9Q6P4). The assay can be described thus: cell-based or functional assay.
The target of assay [2] is T1, West Nile Virus envelope protein on WNV virions (West Nile Virus, UniProt Q9Q6P4 291-791).
T1 sequence: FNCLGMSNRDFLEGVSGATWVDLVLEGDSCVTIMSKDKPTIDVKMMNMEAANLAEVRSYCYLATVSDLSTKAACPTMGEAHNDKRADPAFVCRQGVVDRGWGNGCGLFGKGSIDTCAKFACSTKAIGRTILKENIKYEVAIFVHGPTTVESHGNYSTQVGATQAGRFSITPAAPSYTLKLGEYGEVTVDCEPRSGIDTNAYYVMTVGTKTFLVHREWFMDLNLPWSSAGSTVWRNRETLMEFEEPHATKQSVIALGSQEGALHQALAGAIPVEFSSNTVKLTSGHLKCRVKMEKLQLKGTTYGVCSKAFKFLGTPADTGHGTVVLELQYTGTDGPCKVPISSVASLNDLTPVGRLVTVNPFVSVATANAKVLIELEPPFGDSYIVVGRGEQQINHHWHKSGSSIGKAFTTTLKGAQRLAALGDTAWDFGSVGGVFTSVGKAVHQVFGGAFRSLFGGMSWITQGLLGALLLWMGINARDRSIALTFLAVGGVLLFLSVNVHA
Description: cell-based or functional assay.

Molecule monoclonal antibody E60 yielded a blockade of cellular attachment of WNV to Vero cells (cell-associated viral RNA by fluorogenic RT-PCR), fold reduction in assay [1] of 8 to 9 fold.

B1: monoclonal antibody E16 (antibody, V domains shown)
VH: QVQLQQSGSELMKPGASVQISCKATGYTFSDYWIEWVKQRPGHGLEWIGILCGTGRTRYNEKLKAMATFTADTSSNTAFMQLSSLTSEDSAVYYCARSASYGDYADYWGHGTTLTVSS
VL: DIVMTQSHKFMSTSVGDRVSITCKASQDVSTAVAWYQQKPGQSPKLLISWASTRHTGVPDRFTGSGSGTDYTLTISSVQAEDLALYYCQQHYTTPLTFGAGTKLELK
Regarding B1, the “blockade of cellular attachment of WNV to Vero cells (cell-associated viral RNA by fluorogenic RT-PCR), fold reduction” value in assay [2] came to 3.5 fold.
